# Reference: article PMC11185801 (bioRxiv, 2024)
# B1: human Kir7.1 R162Q mutant (natural protein)
# chain: MDSSNCKVIAPLLSQRYRRMVTKDGHSTLQMDGAQRGLAYLRDAWGILMDMRWRWMMLVFSASFVVHWLVFAVLWYVLAEMNGDLELDHDAPPENHTICVKYITSFTAAFSFSLETQLTIGYGTMFPSGDCPSAIALLAIQMLLGLMLEAFITGAFVAKIAQPKNRAFSIRFTDTAVVAHMDGKPNLIFQVANTRPSPLTSVRVSAVLYQERENGKLYQTSVDFHLDGISSDECPFFIFPLTYYHSITPSSPLATLLQHENPSHFELVVFLSAMQEGTGEICQRRTSYLPSEIMLHHCFASLLTRGSKGEYQIKMENFDKTVPEFPTPLVSKSPNRTDLDIHINGQSIDNFQISETGLTE
# B2: human Kir7.1 E276A mutant (natural protein)
# chain: MDSSNCKVIAPLLSQRYRRMVTKDGHSTLQMDGAQRGLAYLRDAWGILMDMRWRWMMLVFSASFVVHWLVFAVLWYVLAEMNGDLELDHDAPPENHTICVKYITSFTAAFSFSLETQLTIGYGTMFPSGDCPSAIALLAIQMLLGLMLEAFITGAFVAKIARPKNRAFSIRFTDTAVVAHMDGKPNLIFQVANTRPSPLTSVRVSAVLYQERENGKLYQTSVDFHLDGISSDECPFFIFPLTYYHSITPSSPLATLLQHENPSHFELVVFLSAMQAGTGEICQRRTSYLPSEIMLHHCFASLLTRGSKGEYQIKMENFDKTVPEFPTPLVSKSPNRTDLDIHINGQSIDNFQISETGLTE
# Molecular target: the molecule itself
# Test: cryo-EM structure
protein,measurement,value
B1,stoichiometry N,4
B2,stoichiometry N,4
